Each block holds one binder with its values, some of them ahead of it.
Biological target: T1, Dnmt3a K44me0 peptide 39-50 (Mus musculus, UniProt O88508)
T1 chain: SATARKVGRPGR

Kd: ~5 µM
B1: G9a SET (protein)
chain: not shown

Kd: ~5 µM
B2: GLP SET (protein)
chain: not shown
